Four substances from article PMC6750898 can be followed below.

Assay [1] deals with penton protein P31 of bacteriophage PR772 (bacteriophage PR772). The experiment in a line: cryo-EM structure; localized asymmetric (C1) reconstruction of the five-fold vertex after capsid signal subtraction (about 10 Å for the class with P2; 4.41 Å for the penton) and focused classification of the penton base (4.25 Å); models fitted as rigid bodies; purified wild-type virions.
Assay [2] addresses host-recognition protein P5 of bacteriophage PR772 (bacteriophage PR772). Described as above.
Assay [3] addresses major capsid protein P3 of bacteriophage PR772 (bacteriophage PR772). Kind of assay: cryo-EM structure; icosahedrally averaged (I4) single-particle reconstruction of purified wild-type PR772 virions; overall 2.75 Å, capsid 2.3 Å; de-novo model of the asymmetric unit; difference density map of the vertex region.
For assay [4], the target named is capsid associated protein P30 of bacteriophage PR772 (bacteriophage PR772). Described as above.

Usually stoichiometry N stands for a count of units in the complex or per binding partner. For “host-recognition protein P5 of bacteriophage PR772 (natural protein)”, in assay [1], the stoichiometry N (copies of P5 in the penton base) came to 3 and the stoichiometry N (copies of P31 in the penton base) is 2. Moreover, the stoichiometry N in assay [2] was 3.

“receptor-binding protein P2 of bacteriophage PR772 (natural protein)”: the percent of vertex sub-particles with a density representing P2 in assay [2] came to 16%.

Substance “major capsid protein P3 of bacteriophage PR772 (natural protein)” returned a stoichiometry N in assay [3] of 3.

The substance “capsid associated protein P30 of bacteriophage PR772 (natural protein)” displayed a stoichiometry N in assay [4] of 2.
